B1: HRSV-C39 peptide (residues 482-520 of HRSV F0) (peptide)
peptide: VFPSDEFDASISQVNEKINQSLAFIRKSDELLHNVNAGK
notes: Made by proteinase K trimming of the HRSV-N57/C45 complex

Legend:
[1] = Thermal denaturation followed by circular dichroism (CD) spectroscopy; format: physicochemical; details: at 10 μM in PBS
Method: CD spectra were measured at protein concentration 10 μM in PBS buffer using an AVIV 62 DS spectrometer (Aviv Associates, Lakewood, N.J.), as described (Fass, D. & Kim, P. S., Curr. Biol., 5:1377-1383 (1995).

[2] = molecular target: T1, HRSV-N51 peptide (residues 157-207 of HRSV F0) (human respiratory syncytial virus …); test: complex left after proteinase K digestion of HRSV-N57/C45; CD thermal melt
T1 construct: Made by proteinase K trimming of the HRSV-N57/C45 complex
T1 peptide: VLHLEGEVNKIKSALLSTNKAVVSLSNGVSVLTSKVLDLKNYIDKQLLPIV

| Molecule | apparent Tm [1] | binding result [2] |
| --- | --- | --- |
| HRSV-C45: C-terminal trypsin fragment of recRSV-1, residues 476-520 of HRSV F0 (SEQ ID NO.: 2) (NFYDPLVFPSDEFDASISQVNEKINQSLAFIRKSDELLHNVNAGK) | does not show a thermal unfolding transition |  |
| HRSV-N57: N-terminal trypsin fragment of recRSV-1, residues 153-209 of HRSV F0 (SEQ ID NO.: 1) (AVSKVLHLEGEVNKIKSALLSTNKAVVSLSNGVSVLTSKVLDLKNYIDKQLLPIVNK) | 40-50 °C |  |
| B1 |  | binds |
